Measured values taken from patent US20090111104A1, “Method for Monitoring Hydrolytic Activity” (Fluorotechnics Pty Limited, priority 2005, published 2009).

Key:
Format in all cases: biochemical, bovine
BSA [1] = biological target: T1, BSA (Bos taurus, UniProt P02769); test: SDS-PAGE validation of BSA proteolysis in the presence of different fluorophores (Example 7); conditions: after 120 minutes
T1 construct: purchased Sigma-Aldrich A3059
Excerpt: The normalised data were used for Prism analysis for obtaining the rate constants. In each case, the protein with fluorophore (open squares) is fitted to a single phase exponential decay (Y=span*exp(−kX)+plateau) and the value for k used as the fixed value for k1 in a two phase exponential decay (Y=span1*exp(−k1X)+span2*exp(−k2X)+plateau) for the protein plus papain (open circles). Through this method it was possible to measure the rate constants for hydrolysis and predict the time point for complete hydrolysis. […] It can be seen from this figure that the bands associated with the protein have disappeared after 120 minutes and that only a faint band for residual papain or trypsin can be seen. In some cases there are also some larger peptide fragments remaining after digestion that are resistant to further hydrolysis.

BSA [2] = biological target: T1, BSA; test: Tryptic digestion of BSA followed with SYPROorange; conditions: SYPROorange reporter dye
Procedure: • As per Example 2 above. • SYPROorange (24 mM in DMSO, Molecular Probes) diluted to 100-fold in 50 mM bicine
As per Example 2 except the Fluorostar plate reader was set to 480 nm excitation and 600 (±10 nm) bandpass emission filter.

BSA [3] = biological target: T1, BSA; test: Tryptic digestion without dye, sub-sampled and quenched with protease inhibitors, then read with epicocconone (Example 8); conditions: no dye during digestion; sub-sampling and quenching with protease inhibitors
Procedure: 1. The trypsin inhibitors, leupeptin and trypsin-inhibitor (soybean) were prepared at a concentration of 1 mM in RO water and 0.48 mg/mL in RO water, respectively. 2. The protein samples were prepared as previously described in Example 6. The reduced and alkylated protein samples were diluted 1:10 in 100 mM bicine buffer (pH 8.4-5). 3. Trypsin (4.62 μg) was added to each protein sample (231 μg/300 μL) at a ratio of 1:50 and the samples were incubated at 37° C. 4. Sub-samples were collected for inhibition of trypsin activity either by leupeptin or by trypsin inhibitor (soybean). • a. Forty-five microlitres of the tryptic digests were sub-sampled at 0, 10, 20, 30, 60, […], 90, and 120 minutes and immediately added to 1.5 mL tubes containing 5 μL of 1 mM leupeptin. The sub-samples treated with leupeptin inhibitor were left at room temperature until fluorescence was read. • b. […] The sub-samples treated with soybean trypsin inhibitor were left at room temperature until fluorescence was read. […] Fluorescence of the sub-samples was read at Ex/Em=540-10/630-10 nm with 10 flashes. […] The fluorescence value was normalised by subtracting basal fluorescence of corresponding controls from the raw fluorescence of the sub-samples. […]

T1 sequence (P02769 25-607): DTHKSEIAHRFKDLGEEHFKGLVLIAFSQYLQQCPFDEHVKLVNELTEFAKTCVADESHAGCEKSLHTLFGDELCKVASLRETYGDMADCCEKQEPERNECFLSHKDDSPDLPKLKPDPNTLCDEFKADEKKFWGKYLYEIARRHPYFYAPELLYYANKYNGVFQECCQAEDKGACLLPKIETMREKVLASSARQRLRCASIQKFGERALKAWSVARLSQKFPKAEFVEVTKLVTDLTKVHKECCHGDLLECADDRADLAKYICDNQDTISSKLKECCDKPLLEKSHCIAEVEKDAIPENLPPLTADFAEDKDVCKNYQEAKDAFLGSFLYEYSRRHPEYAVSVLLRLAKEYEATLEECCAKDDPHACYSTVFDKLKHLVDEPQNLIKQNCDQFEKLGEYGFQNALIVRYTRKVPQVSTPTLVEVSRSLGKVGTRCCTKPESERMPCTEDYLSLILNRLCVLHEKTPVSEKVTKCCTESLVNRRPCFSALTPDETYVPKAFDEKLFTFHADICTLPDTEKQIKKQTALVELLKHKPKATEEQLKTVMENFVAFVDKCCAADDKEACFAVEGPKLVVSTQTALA

digestion of BSA by SDS-PAGE (BSA [1]): complete digestion
apparent first order rate constant for tryptic digestion (BSA [2]): 0.1466 min⁻¹
pseudo-first order rate constant for digestion of BSA (BSA [3]): 0.3 min⁻¹
B1: trypsin: Proteomics grade trypsin protease, Sigma-Aldrich T6567 (protein, UniProt P00761 9-231, looked up)
Trypsin: IVGGYTCAANSIPYQVSLNSGSHFCGGSLINSQWVVSAAHCYKSRIQVRLGEHNIDVLEGNEQFINAAKIITHPNFNGNTLDNDIMLIKLSSPATLNSRVATVSLPRSCAAAGTECLISGWGNTKSSGSSYPSLLQCLKAPVLSDSSCKSSYPGQITGNMICVGFLEGGKDSCQGDSGGPVVCNGQLQGIVSWGYGCAQKNKPGVYTKVCNYVNWIQQTIAAN
